Reference: patent publication US6008193A, “Methods of using human von Willebrand factor GPIb binding domain polypeptides” (Bio-Technology General Corp., priority 1995, dated 1999)
Several values for one entry are separate records, joined by “and”; a condition that tells them apart may be missing. Equal values may be shown once.

What was measured:
[1] = biological target: platelet glycoprotein Ib (GPIb) (human) (UniProt P07359)
[2] = biological target: platelet glycoprotein Ib (GPIb) (human) (UniProt P07359); remark: listed apart in the source
[3] = biological target: platelet glycoprotein Ib (GPIb) (human) (UniProt P07359); remark: listed apart in the source
[4] = biological target: platelet glycoprotein Ib (GPIb) (human) (UniProt P07359); remark: listed apart in the source
[5] = biological target: platelet glycoprotein Ib (GPIb) (human) (UniProt P07359); remark: listed apart in the source
[6] = biological target: platelet glycoprotein Ib (GPIb) (human) (UniProt P07359); remark: listed apart in the source
[7] = biological target: platelet glycoprotein Ib (GPIb) (human) (UniProt P07359); remark: listed apart in the source
[8] = biological target: platelet glycoprotein Ib (GPIb) (human) (UniProt P07359); remark: listed apart in the source
[9] = biological target: platelet glycoprotein Ib (GPIb) (human) (UniProt P07359); remark: listed apart in the source
[10] = biological target: platelet glycoprotein Ib (GPIb) (human) (UniProt P07359); remark: listed apart in the source
[11] = biological target: platelet glycoprotein Ib (GPIb) (human) (UniProt P07359); remark: listed apart in the source
[12] = biological target: platelet glycoprotein Ib (GPIb) (human) (UniProt P07359); experiment: platelet adhesion to immobilized VCL on a glass cover slip in a laminar flow cell
[13] = biological target: platelet glycoprotein Ib (GPIb) (human) (UniProt P07359); experiment: platelet adhesion to immobilized VCL against immobilized albumin in a laminar flow cell
[14] = system: rat platelet rich plasma (PRP); experiment: vWF-dependent platelet aggregation assay in platelet rich plasma (PRP); format: cell-based; conditions: ristocetin up to 5.0 mg/ml, no additional agent
Description: This is a standardized von Willebrand Factor (vWF)-dependent aggregation assay using human or rat platelet rich plasma (PRP). The addition of various concentrations of unfractionated Bothrops jararaca venom (BJV), which includes botrocetin and an additional thrombin-like component, or ristocetin results in an aggregatory response in the absence of any additional agent. Using ristocetin (1.5 mg/ml) as the agonist 43 μg/ml VCL abolished the aggregation of human PRP.

Substance | % Inhibition of Platelet Aggregation (asialo-vWF induced, in PRP) [1] | % Inhibition of Platelet Aggregation (ristocetin induced, washed human platelets with intact vWF) [2] | Dissolution of preformed aggregates (made by RIPA) [3] | IC50, Asialo vWF induced platelet aggregation [3] | IC50, Platelet deposition under conditions of flow (everted denuded human umbilical artery, whole human blood) [3] | IC50, Ristocetin induced platelet aggregation [3] | IC50, Thrombin induced platelet aggregation [3] | Ristocetin induced platelet aggregation (RIPA) [4] | platelet adhesion to endothelial cell extracellular matrix (ECM) in a laminar flow cell [5] | IC50, platelet adhesion to ECM at a shear rate of 1300 s^-1 [6] | platelet adhesion to immobilized fibrinogen in a laminar flow cell [7] | platelet adhesion to immobilized collagen (type I) in a laminar flow cell [8] | platelet adhesion to immobilized vWF in a laminar flow cell [9] | platelet adhesion to immobilized fibronectin in a laminar flow cell [10] | platelet deposition on damaged porcine aorta perfused ex vivo with normal human blood [11] | percent coverage of the test surface by platelets [12] | fold of adhesion to albumin [13] | Aggregation of rat PRP induced by ristocetin [14]
VCL, a vWF GPIb binding domain polypeptide (methionine plus amino acids 504-728 of mature human vWF) (ligand) | 76% | 100% | 0.5 µM VCL | 0.15 µM VCL | 1 µM VCL | 0.2 µM VCL and 0.3 µM VCL | 0.3 µM VCL | 100 % inhibition | 70 % inhibition | 0.8 µM | 75 % inhibition | 50 % inhibition | 25 % inhibition | 80 % inhibition | 60 % reduction | < 5 % coverage | 10 fold | 
ristocetin |  |  |  |  |  |  |  |  |  |  |  |  |  |  |  |  |  | did not cause measurable aggregation
